Experimental data from patent US20250257133A1 (ADAGENE PTE, published 2025).
Residue numbers refer to the chain shown, from its start. Numbers in names are those of the source. Where two headings read alike, the source gives them in different places.

What was measured:
[1] = molecular target: T1, His-tagged human CTLA4 protein (human, UniProt P16410 36-161, limits assumed); assay: Octet BLI, mAb captured;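 on Kd: Anti-human Fc biosensors captured the antibodies, then His-tagged protein analytes at 100 nM associated for 300 s and dissociated for 300 s, fitted by a 1:1 Langmuir model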;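 on koff: Anti-human Fc biosensors captured the antibodies, then His-tagged protein analytes at 100 nM associated for 300 s and dissociated for 300 s, fitted by a 1:1 Langmuir model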
T1 construct: not shown: His tag
T1 sequence (P16410 36-161 limits assumed): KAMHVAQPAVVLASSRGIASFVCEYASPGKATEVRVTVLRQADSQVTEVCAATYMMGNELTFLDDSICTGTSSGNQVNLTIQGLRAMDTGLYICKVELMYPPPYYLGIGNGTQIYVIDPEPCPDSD

[2] = molecular target: T2, His-tagged human CD28 protein (human, UniProt P10747 19-152); assay: Octet BLI, mAb captured;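 further: Anti-human Fc biosensors captured the antibodies, then His-tagged protein analytes at 100 nM associated for 300 s and dissociated for 300 s, fitted by a 1:1 Langmuir model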
T2 construct: not shown: His tag

Human CD28 on cells = molecular target: T3, Human CD28 on cells (human, UniProt P10747 19-220); assay: flow cytometry, Jurkat cells
T3 construct: Jurkat E6-1 cells, primary human T cells, or transfected HEK293F cells; also called CD28 on Jurkat cells; CD28 on human CD3+ T cells
Description: Next, the cells were washed twice with DPBS and further incubated with a APC-anti-human IgG Fc secondary antibody (1 μg/mL, 100 μL/well, Biolegend) for 30 minutes at 4° C. Finally, the cells were washed twice with DPBS and suspended in FACS buffer for flow cytometry analysis. For analysis, the Mean Fluorescence Intensity (MFI) values versus concentrations were plotted using FlowJo 10 software (FlowJo LLC) and the data were further fitted with four-parameter non-linear regression to obtain EC₅₀ values by GraphPad Prism version 7 for Windows, GraphPad Software, La Jolla California USA, www.graphpad.com.

[3] = molecular target: T4, Human CD28 (ELISAs of Examples 4 and 13) (human, UniProt P10747 19-152, limits assumed); assay: ELISA
[4] = molecular target: Mouse CD28 (ELISA of Example 13) (mouse, UniProt P31041 20-150, limits assumed); assay: ELISA
Mouse CD28 (ELISA of Example 13), sequence (P31041 20-150 limits assumed): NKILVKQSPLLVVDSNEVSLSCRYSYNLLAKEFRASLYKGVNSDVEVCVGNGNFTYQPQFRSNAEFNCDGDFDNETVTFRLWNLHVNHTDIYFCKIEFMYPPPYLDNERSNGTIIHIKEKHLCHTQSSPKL

Mouse CD28 on cells = molecular target: T5, Mouse CD28 on cells (mouse, UniProt P31041 20-218); assay: flow cytometry on mouse T cells, median fluorescence intensity; drawn table; set-up: AUC: unit not given beside the values
T5 construct: also called CD28 on mouse T cells
T5 sequence (P31041 20-218 limits assumed): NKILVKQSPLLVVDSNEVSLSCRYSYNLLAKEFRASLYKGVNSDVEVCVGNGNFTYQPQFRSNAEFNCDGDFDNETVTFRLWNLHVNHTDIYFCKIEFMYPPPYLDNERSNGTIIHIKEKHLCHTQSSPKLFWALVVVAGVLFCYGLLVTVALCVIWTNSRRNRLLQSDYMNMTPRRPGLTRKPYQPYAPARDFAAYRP

[5] = molecular target: T4, Human CD28 (ELISAs of Examples 4 and 13); assay: ELISA; remark: listed apart in the source
B7H3 on MDA-MB-231 cells = molecular target: T6, B7H3 on MDA-MB-231 cells (UniProt Q5ZPR3 29-534, limits assumed); assay: flow cytometry, MDA-MB-231 cells
T6 construct: whole, on cells
T6 sequence (looked up): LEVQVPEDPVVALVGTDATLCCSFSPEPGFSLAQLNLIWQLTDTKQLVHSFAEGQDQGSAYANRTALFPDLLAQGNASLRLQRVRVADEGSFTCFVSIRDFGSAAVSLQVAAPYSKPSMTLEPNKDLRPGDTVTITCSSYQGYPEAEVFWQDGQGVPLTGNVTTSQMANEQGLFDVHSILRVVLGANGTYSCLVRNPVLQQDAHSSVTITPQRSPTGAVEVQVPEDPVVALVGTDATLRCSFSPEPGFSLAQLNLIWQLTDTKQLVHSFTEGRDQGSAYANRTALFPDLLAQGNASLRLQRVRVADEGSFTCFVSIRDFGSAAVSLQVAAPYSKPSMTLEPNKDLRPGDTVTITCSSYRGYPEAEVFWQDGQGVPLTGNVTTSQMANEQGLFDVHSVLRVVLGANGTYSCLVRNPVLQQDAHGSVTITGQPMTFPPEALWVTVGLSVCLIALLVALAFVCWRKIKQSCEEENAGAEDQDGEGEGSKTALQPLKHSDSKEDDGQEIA
Description: An isotype antibody was included as a negative control.
MDA-MB-231 cells were cultured and seeded in 96-well plates at 1.0×10⁵ cells/well and incubated with serially diluted test BsAbs for 60 minutes at 4° C. in 2% FBS/RPMI1640 buffer. Next, the cells were washed twice with DPBS and further incubated with secondary APC-anti-human IgG Fe antibody (1:400 dilution) for 30 minutes at 4° C. Finally, the cells were washed twice with DPBS and resuspended in FACS buffer for flow cytometry analysis. For analysis, the MFI values versus concentrations were plotted using FlowJo 10 software (FlowJo LLC) and the data were further fitted with four-parameter non-linear regression to obtain EC₅₀ values by GraphPad Prism version 7 for Windows.

[6] = molecular target: T7, Recombinant mouse CD28-Fc (mouse, UniProt P31041 20-150); assay: ELISA, coated CD28-Fc
T7 construct: not shown: Fc part
T7 sequence (P31041 20-150 limits assumed): as the sequence (P31041 20-150 limits assumed) above

[7] = molecular target: T8, Recombinant human CD28-Fc (human, UniProt P10747 19-152); assay: ELISA, coated CD28-Fc
T8 construct: not shown: Fc part

[8] = molecular target: T4, Human CD28 (ELISAs of Examples 4 and 13); assay: ELISA, blocking of CD28-CD80
[9] = molecular target: T8, Recombinant human CD28-Fc; assay: ELISA on coated recombinant human CD28-Fc, HRP anti-human IgG (Fab specific), A450
Description: (§1) When measuring the masking efficiency through ELISA, recombinant human CD28-Fc was diluted to 2 g/mL in PBS and coated onto a MaxiSorp™ high protein-binding capacity 96 well ELISA plate (ThermoFisher Scientific) at 4° C. overnight. Plates were blocked with PBS supplemented with 3% non-fat milk at 37° C. for 1 hour. After washing, 100 μL of 3-fold serial dilutions of anti-CD28 test mAbs were added to each well. After incubation at 37° C. for 1 hour, plates were washed four times, and 100 μL horseradish peroxidase (HRP)-conjugated anti-human IgG (Fab specific) (1:6000 dilution) secondary antibody was added to each well. Plates were incubated at 37° C. for 1 hour, washed four times, and then 50 μL a TMB substrate (3, 3′, 5, 5′-tetramethylbenzidine) solution was added to each well, and the plate was incubated at room temperature. Absorbance at 450 nm was measured after the reactions were stopped with 50 μL sulfuric acid stop solution per well. The EC₅₀ was evaluated by fitting the ELISA data using the sigmoidal (four-parameter logistic equation) model of GraphPad Prism version 6 for Windows, GraphPad Software, La Jolla California USA, www.graphpad.com.

[10] = molecular target: T1, His-tagged human CTLA4 protein; assay: Octet BLI, mAb captured; remark: listed apart in the source;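 on Kd: Anti-human Fc biosensors captured the antibodies, then His-tagged protein analytes at 100 nM associated for 300 s and dissociated for 300 s, fitted by a 1:1 Langmuir model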
Description: The Octet® RED96 Systems (ForteBio) was used to assess the binding kinetics of the panel of anti-CD28 mAbs to human CD28 and CTLA4. Briefly, the mAbs were diluted to 15 μg/mL in kinetic buffer (PBS supplemented with 0.02% Tween 20 and 0.1% BSA), and captured by Dip and Read AHC biosensors (ForteBio) in parallel. The sensors were then allowed to associate with His-tagged human CD28 and CTLA4 proteins (100 nM) for 300 seconds, and to dissociate in kinetic buffer for another 300 seconds. The association and dissociation curves were fitted to a 1:1 Langmuir binding model using the Octet® Data Analysis Software Version 7.1 (ForteBio).

[11] = molecular target: T8, Recombinant human CD28-Fc; assay: ELISA on coated recombinant human CD28-Fc, HRP anti-human IgG (Fab specific), A450; remark: listed apart in the source
Description: as §1

HER2 on SK-OV-3 cells = molecular target: T9, HER2 on SK-OV-3 cells (UniProt P04626 23-1255, limits assumed); assay: flow cytometry on SK-OV-3 cells, APC anti-human IgG Fc secondary antibody, mean fluorescence intensity, 4-parameter fit; drawn table
T9 construct: whole, on cells; also called HER2 antigen

B1: TY24773 (antibody, human IgG4 S228P, kappa, V domains shown)
VH: EVQLVESGGGLVQPGGSLRLSCAASGYSISSGYHWGWIRQAPGKGLEWIGEIYHSGSTYYSPSLKSRVTISRDNSKNTLYLQLNSLRAEDTAVYYCARKDYYYALDYWGQGTLVTVSS
VL: DIQLTQSPSSLSASVGDRVTITCRASQSVDFYGKSFLHWYQQKPGKAPKLLIYAASTLQSGVPSRFSGSGSGTDFTLTISSLQPEDFATYYCQQSYRTPLTFGQGTKVEIKR
notes: hIgG4/S241P
[1]
  binding result: no binding (tested: 100 nM CTLA4)
[2]
  Kd: 8.29 nM
  koff: 0.000319 s⁻¹
  kon: 38500 M⁻¹ s⁻¹
Human CD28 on cells
  EC50: 0.71 nM

B2: TY24853 (antibody, human IgG4 S228P, kappa, V domains shown)
VH: B1 VH with S30T, Y33H, G36S, Y101D, L105F
VL: B1 VL with Q27E, K34I, L100I
notes: hIgG4/S241P
[1]
  binding result: no binding (tested: 100 nM CTLA4)
[2]
  Kd: 3.96 nM
  koff: 0.000164 s⁻¹
  kon: 41600 M⁻¹ s⁻¹
Human CD28 on cells
  EC50: 0.43 nM

B3: TY30120 (bispecific antibody, human IgG1, kappa, N297A)
light: DIQLTQSPSSLSASVGDRVTITCRASQSIRKYLNWYQQKPGKAPKLLIYAASTLQSGVPSRFSGSGSGTDFTLTISSLQPEDFATYFCSQGTHVPFTFGQGTKVEIKRTVAAPSVFIFPPSDEQLKSGTASVVCLLNNFYPREAKVQWKVDNALQSGNSQESVTEQDSKDSTYSLSSTLTLSKADYEKHKVYACEVTHQGLSSPVTKSFNRGEC
heavy: EVQLVESGGGLVQPGGSLRLSCAASGFTFSGYGIHWVRQAPGKGLEWIGWISPSGGDTKYAQKFQGRVTISRDNSKNTLYLQLNSLRAEDTAVYYCARGGTVVYFDYWGQGTLVTVSSASTKGPSVFPLAPSSKSTSGGTAALGCLVKDYFPEPVTVSWNSGALTSGVHTFPAVLQSSGLYSLSSVVTVPSSSLGTQTYICNVNHKPSNTKVDKKVEPKSCDKTHTCPPCPAPELLGGPSVFLFPPKPKDTLMISRTPEVTCVVVDVSHEDPEVKFNWYVDGVEVHNAKTKPREEQYASTYRVVSVLTVLHQDWLNGKEYKCKVSNKALPAPIEKTISKAKGQPREPQVYTLPPSRKKLTKNQVKLTCLVKGFYPSDIAVEWESNGQPENNYKTTPPVLDCDGSFFLYSKLTVDKSRWQQGNVFSCSVMHEALHNHYTQKSLSLSPGK
chain: EVQLVESGGGLVQPGGSLRLSCAASGFSLSTSGVGVSWIRQAPGKGLEWIGEIYHSGSTYYSPSLKSRVTISRDNSKNTLYLQLNSLRAEDTAVYYCARYGYYYYDFDYWGQGTLVTVSSGGGGSGGGGSGGGGSGGGGSDIQLTQSPSSLSASVGDRVTITCRASQSVDFHGISFLHWYQQKPGKAPKLLIYAASSLQSGVPSRFSGSGSGTDFTLTISSLQPEDFATYYCQQSYRSPRTFGQGTKVEIKEPKSSDKTHTCPPCPAPELLGGPSVFLFPPKPKDTLMISRTPEVTCVVVDVSHEDPEVKFNWYVDGVEVHNAKTKPREEQYASTYRVVSVLTVLHQDWLNGKEYKCKVSNKALPAPIEKTISKAKGQPREPQVYTDPPSRDELTKNQVSLTCLVDGFYPSDIAVEWESNGQPENCYKTTPPVLDSDGSFFLYSKLTVDKSRWQQGNVFSCSVMHEALHNHYTQDSLSLSPGK
notes: anti-B7H3 Fab x CD28 scFv BC10599 (VH-VL)-Fc
[3]
  EC50: 3.03 nM
[4]
  EC50: 74.2 nM
Mouse CD28 on cells
  AUC: 4380
  EC50: 145 nM
  Max MFI: 2710

B4: TY29815 (bispecific antibody, human IgG1, kappa, N297A)
light: DIQLTQSPSSLSASVGDRVTITCRASQSIPSFLNWYQQKPGKAPKLLIYAASSLQSGVPSRFSGSGSGTDFTLTISSLQPEDFATYYCQHYISWPRQFTFGQGTKVEIKRTVAAPSVFIFPPSDEQLKSGTASVVCLLNNFYPREAKVQWKVDNALQSGNSQESVTEQDSKDSTYSLSSTLTLSKADYEKHKVYACEVTHQGLSSPVTKSFNRGEC
heavy: EVQLVESGGGLVQPGGSLRLSCAASGYSISSGYYWGWIRQAPGKGLEWIGIIYPSGGGTNYAQKFQGRVTISRDNSKNTLYLQLNSLRAEDTAVYYCARGGGLGFDYWGQGTLVTVSSASTKGPSVFPLAPSSKSTSGGTAALGCLVKDYFPEPVTVSWNSGALTSGVHTFPAVLQSSGLYSLSSVVTVPSSSLGTQTYICNVNHKPSNTKVDKKVEPKSCDKTHTCPPCPAPELLGGPSVFLFPPKPKDTLMISRTPEVTCVVVDVSHEDPEVKFNWYVDGVEVHNAKTKPREEQYASTYRVVSVLTVLHQDWLNGKEYKCKVSNKALPAPIEKTISKAKGQPREPQVYTLPPSRKKLTKNQVKLTCLVKGFYPSDIAVEWESNGQPENNYKTTPPVLDCDGSFFLYSKLTVDKSRWQQGNVFSCSVMHEALHNHYTQKSLSLSPGK
chain: B3 chain with S32G, G101E
notes: also called TY29815 (WT); wild type anti-PD-L1xCD28 bsAb
[5]
  EC50: 22.3 nM

B5: TY27556 (bispecific antibody, human IgG1, kappa, N297A)
light: B3 light
heavy: B3 heavy
chain: DIQLTQSPSSLSASVGDRVTITCRASQSVDFHGISFLHWYQQKPGKAPKLLIYAASSLQSGVPSRFSGSGSGTDFTLTISSLQPEDFATYYCQQSYRSPRTFGQGTKVEIKGGGGSGGGGSGGGGSGGGGSEVQLVESGGGLVQPGGSLRLSCAASGFSLSTGGVGVSWIRQAPGKGLEWIGEIYHSGSTYYSPSLKSRVTISRDNSKNTLYLQLNSLRAEDTAVYYCARYEYYYYDFDYWGQGTLVTVSSEPKSSDKTHTCPPCPAPELLGGPSVFLFPPKPKDTLMISRTPEVTCVVVDVSHEDPEVKFNWYVDGVEVHNAKTKPREEQYASTYRVVSVLTVLHQDWLNGKEYKCKVSNKALPAPIEKTISKAKGQPREPQVYTDPPSRDELTKNQVSLTCLVDGFYPSDIAVEWESNGQPENCYKTTPPVLDSDGSFFLYSKLTVDKSRWQQGNVFSCSVMHEALHNHYTQDSLSLSPGK
notes: also called anti-B7H3xCD28 BsAb
B7H3 on MDA-MB-231 cells
  EC50: 12.8 nM
  fold reduction of binding activity against TY21601: ~28 fold

B6: TY30121 (bispecific antibody, human IgG1, kappa, N297A)
light: B3 light
heavy: B3 heavy
chain: B3 chain with S37G, S62N, G101K, Y103D
notes: anti-B7H3 Fab x CD28 scFv BC10601 (VH-VL)-Fc
[3]
  EC50: 5.73 nM
[4]
  EC50: 108 nM
Mouse CD28 on cells
  AUC: 4620
  EC50: 142 nM
  Max MFI: 2860

B7: TY30413 (bispecific antibody, human IgG1, kappa, N297A)
light: B4 light
heavy: B4 heavy
chain: B3 chain with S32G, G101E, Y104H
notes: anti-PD-L1 Fab x CD28 scFv VH-VL (YYHY)-Fc
[5]
  EC50: 26.8 nM

B8: TY30123 (bispecific antibody, human IgG1, kappa, N297A)
light: B3 light
heavy: B3 heavy
chain: B3 chain with S32G, S37G
notes: anti-B7H3 Fab x CD28 scFv BC10621 (VH-VL)-Fc
[3]
  EC50: 3.59 nM
[4]
  EC50: 96.4 nM
Mouse CD28 on cells
  AUC: 3820
  EC50: 76.2 nM
  Max MFI: 1980

B9: TY24865 (antibody, human IgG4 S228P, kappa)
heavy: not shown
light: DIQLTQSPSSLSASVGDRVTITCRASQSVDFHGISFLHWYQQKPGKAPKLLIYAASSLQSGVPSRFSGSGSGTDFTLTISSLQPEDFATYYCQQSYRSPRTFGQGTKVEIKRTVAAPSVFIFPPSDEQLKSGTASVVCLLNNFYPREAKVQWKVDNALQSGNSQESVTEQDSKDSTYSLSSTLTLSKADYEKHKVYACEVTHQGLSSPVTKSFNRGEC
notes: hIgG4/S241P; also called parental anti-CD28 antibody
[6]
  EC50: > 4.94 nM
[7]
  EC50: 0.58 nM
[8]
  IC50: 0.68 nM
[9]
  EC50 (read off the curve): ~700 pM
[2]
  Kd: < 0.001 nM
[10]
  binding result: no binding (tested: 100 nM CTLA4)
Human CD28 on cells
  EC50: 0.46 nM
[11]
  EC50 (read off the curve): ~900 pM

B10: TY25238 (bispecific antibody)
chain 1: not shown
chain 2: not shown
chain 3: QAVVTQEPSLTVSPGGTVTLTCGSSTGAVTTSNYPNWVQQKPGQAPRGLIGGTNKRAPGVPARFSGSLLGGKAALTLSGAQPEDEAEYYCALWYSNLWVFGGGTKLTVLGGGGSGGGGSGGGGSGGGGSEVQLVESGGGLVQPGGSLRLSCAASGFTFNTYAINWVRQAPGKGLEWVGRIRSKYNNYATYYAESVKGRFTISRDDSKNTLYLQINSLRAEDTAVYYCVRHGNFGTSYVSWFAYWGQGTLVTVSSEPKSSDKTHTCPPCPAPELLGGPSVFLFPPKPKDTLMISRTPEVTCVVVDVSHEDPEVKFNWYVDGVEVHNAKTKPREEQYASTYRVVSVLTVLHQDWLNGKEYKCKVSNKALPAPIEKTISKAKGQPREPQVYTDPPSRDELTKNQVSLTCLVDGFYPSDIAVEWESNGQPENCYKTTPPVLDSDGSFFLYSKLTVDKSRWQQGNVFSCSVMHEALHNHYTQDSLSLSPGK
HER2 on SK-OV-3 cells
  EC50: 3.74 nM
